# B1: Dystrophin N-terminal (repeat 1) spectrin repeat (domain or fragment, human, UniProt P11532 338-456, looked up)
# chain: EVNLDRYQTALEEVLSWLLSAEDTLQAQGEISNDVEVVKDQFHTHEGYMMDLTAHQGRVGNILQLGSKLIGTGKLSEDEETEVQEQMNLLNSRWECLRVASMEKQSNLHRVLMDLQNQK
# notes: dystrophin, human, residues 338-456 (first spectrin repeat); Without a reducing agent part of the protein is a dimer linked by a disulphide bond between C433 of each molecule; The model in PDB 3UUN holds residues 338-453 (monomer A) and 339-452 (monomer B); Tag and cleavage are told only as 'prepared in an equivalent manner' to Utr-SR1; also called Dys-SR1; source: E. coli BL21(DE3), purified in …
# Biological target: the molecule itself
# Assay: SEC; Superdex 75 HR 30/10; Utr-SR1 in 20 mM Tris pH 8.0, 50 mM NaCl; Dys-SR1 in PBS; no DTT added
protein,measurement,value
B1,binding result,binds

# Reference: article PMC3401230, “The Crystal Structures of Dystrophin and Utrophin Spectrin Repeats: Implications for Domain Boundaries” (PLoS ONE, 2012)
